Test system: HIV-1 RF, NIH Cat #2804
Experiment: Infectivity assay by BFUs on MAGI P4/R5 cells with and without lipofectamine (RNA-I-61)
Format: cell-based
Conditions: naked (unencapsulated), Presence of Lipofectamine
Method: A knockdown study (RNA-I-61) of the 8 nanoencapsulated and the corresponding unencapsulated (naked) siRNA preparations along with two controls described in the previous experiments was performed using freshly reconstituted materials with HIV-1 RF, NIH Cat #2804, diluted to contain ˜100 Blue Focus forming Units (BFUs) per dose of inoculum. […] The objective of this experiment was to test a range of concentrations of the inhibitors to determine the ID50 for each preparation based on the siRNA content. Since the nanosomal materials were freshly reconstituted, they were recharacterized.
The reconstituted samples as well as the naked siRNA preparations were tested for virus infection inhibitory activity. The inhibition of infectivity was measured by counting the number of blue foci due to the induced β-galactosidase activity in the host MAGI P4/R5 cells by the infecting HIV. […] The number of BFUs for each treatment at various dilutions were used to calculate the % inhibition from the corresponding dilution for the Negative_siRNA samples. The inhibitor activity was also quantified by measuring the p24 antigen concentration in each of the wells.
Infectivity Assay by BFUs: The percent inhibitions obtained with various Nanosomal_siRNA formulations versus Negative_siRNA formulations in the presence of lipofectamine are listed in Table 12.
50% Inhibitory Dose (ID50) Values: The data from RNA quantification using gel analysis and the infectivity results were used to plot dose response curves and calculate the ID50 (a.k.a. Inhibitory Concentration that results in 50% inhibition, [IC50]) values.

B1: RANTES: CC chemokine, molecular weight 7,900, natural ligand of CCR5; unencapsulated in Table 13 (protein, UniProt P13501 24-91, looked up)
C-C motif chemokine 5: SPYSSDTTPCCFAYIARPLPRAHIKEYFYTSGKCSNPAVVFVTRKNRQVCANPEKKWVREYINSLEMS
Which “Inhibition of BFUs by Naked_siRNA vs Negative_siRNA” value (shortened to “Inhibition … vs Negative_siRNA”) (Treatment Dilution 1) does the source give for B1 here?
Its value is 0%.

What about the “Inhibition … vs Negative_siRNA” value (Treatment Dilution 5) of the same molecule?
Its value is 34%.

What about the “Inhibition … vs Negative_siRNA” value (Treatment Dilution 15) of the same molecule?
Its value is 18%.

And the “Inhibition … vs Negative_siRNA” value (Treatment Dilution 45)?
The value was 0%.

And the “Inhibition … vs Negative_siRNA” value (Treatment Dilution 135)?
Its value is 0%.

— patent US11981714B2, “CCR5 and CD4 siRNA-targeted phospholipid nanosomes therapeutics for treatment of HIV-1 and other diseases” (priority 2020, dated 2024)
